Test results from article PMC10681739, “High-throughput data and modeling reveal insights into the mechanisms of cooperative DNA-binding by transcription factor proteins”.

Target: RUNX1 (Homo sapiens, UniProt Q01196)
Assay: gcPBM; 2 nM RUNX1
Conditions: tags: N-terminal GST (pDEST15), kept (PMC6008103); label: surface-attached array probe

Chain of RUNX1 (Q01196 whole entry): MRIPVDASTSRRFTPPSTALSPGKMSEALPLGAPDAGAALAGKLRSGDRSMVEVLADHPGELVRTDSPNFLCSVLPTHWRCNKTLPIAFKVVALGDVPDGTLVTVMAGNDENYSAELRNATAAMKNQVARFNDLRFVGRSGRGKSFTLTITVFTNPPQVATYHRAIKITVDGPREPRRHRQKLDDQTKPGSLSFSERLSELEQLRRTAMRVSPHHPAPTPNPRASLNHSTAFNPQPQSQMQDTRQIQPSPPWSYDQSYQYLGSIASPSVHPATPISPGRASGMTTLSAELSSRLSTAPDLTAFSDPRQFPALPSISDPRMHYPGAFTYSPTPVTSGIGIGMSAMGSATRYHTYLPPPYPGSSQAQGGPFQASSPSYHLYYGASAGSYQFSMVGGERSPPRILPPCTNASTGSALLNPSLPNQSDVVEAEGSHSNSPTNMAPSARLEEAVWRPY

B1: Table S3 B row 48 (dsDNA)
DNA 1: CCTGCTGCGGTCAGCCCTGTCTCTTTCTGTTTCTGC
DNA 2: GCAGAAACAGAAAGAGACAGGGCTGACCGCAGCAGG
With B1 the binding signal was 16100 PBM fluorescence, median of replicate spots.

B2: Table S3 B row 2601 (dsDNA)
DNA 1: CTGCTTGTGGTTTTGGTCTGCAGCAAGCTGGGCTGC
DNA 2: GCAGCCCAGCTTGCTGCAGACCAAAACCACAAGCAG
In the case of B2, the binding signal is reported as 14600 PBM fluorescence, median of replicate spots.

B3: Table S3 B row 158 (dsDNA)
DNA 1: GTCTCAACCGCAAGGAGGTGTTACGTCCTCTTTTAC
DNA 2: GTAAAAGAGGACGTAACACCTCCTTGCGGTTGAGAC
With B3 the binding signal was 12800 PBM fluorescence, median of replicate spots.

B4: Table S3 B row 2123 (dsDNA)
DNA 1: CTCTGAACGTCCTCTCTTTTAACCACAACTTACTAC
DNA 2: GTAGTAAGTTGTGGTTAAAAGAGAGGACGTTCAGAG
B4 was tested, and the binding signal was 10800 PBM fluorescence, median of replicate spots.

B5: Table S3 B row 1768 (dsDNA)
DNA 1: TGGTTGTGGTTTGGAGATTCTGATGTCATTTGCTGT
DNA 2: ACAGCAAATGACATCAGAATCTCCAAACCACAACCA
For B5, the binding signal was 18000 PBM fluorescence, median of replicate spots.

B6: Table S3 B row 378 (dsDNA)
DNA 1: GCCTGCGGTTTGGGTGCTGTGACCGTACGGGGGCGG
DNA 2: CCGCCCCCGTACGGTCACAGCACCCAAACCGCAGGC
With B6 the binding signal was 10500 PBM fluorescence, median of replicate spots.

B7: Table S3 B row 1072 (dsDNA)
DNA 1: CTTCTTCTTGCGGTTTCAATCACAGTAAACAGACGT
DNA 2: ACGTCTGTTTACTGTGATTGAAACCGCAAGAAGAAG
In the case of B7, the binding signal is reported as 27500 PBM fluorescence, median of replicate spots.

B8: Table S3 B row 2418 (dsDNA)
DNA 1: TTCTCTGCACTGCGGTTTACTCAGAAAGAAGACAAC
DNA 2: GTTGTCTTCTTTCTGAGTAAACCGCAGTGCAGAGAA
With B8 the binding signal was 10900 PBM fluorescence, median of replicate spots.

B9: Table S3 B row 1277 (dsDNA)
DNA 1: GGGGTGCGGTTTAGGGCGGGTTTTTTGCGCCTTGGA
DNA 2: TCCAAGGCGCAAAAAACCCGCCCTAAACCGCACCCC
With B9 the binding signal was 12400 PBM fluorescence, median of replicate spots.

B10: Table S3 B row 3965 (dsDNA)
DNA 1: GGAGAAACCGCAACTCGGAACTACGGGAACGGAGGA
DNA 2: TCCTCCGTTCCCGTAGTTCCGAGTTGCGGTTTCTCC
With B10 the binding signal was 26700 PBM fluorescence, median of replicate spots.

B11: Table S3 B row 226 (dsDNA)
DNA 1: TTTCTTTCTGTGGTTTATCCTTATTTGCTGGCTTCG
DNA 2: CGAAGCCAGCAAATAAGGATAAACCACAGAAAGAAA
For B11, the binding signal was 12500 PBM fluorescence, median of replicate spots.

B12: Table S3 B row 1134 (dsDNA)
DNA 1: GTTAAGCTGCGGTCAGACCTAAGGGAGGATCTGGCT
DNA 2: AGCCAGATCCTCCCTTAGGTCTGACCGCAGCTTAAC
With B12 the binding signal was 17500 PBM fluorescence, median of replicate spots.

B13: Table S3 B row 2433 (dsDNA)
DNA 1: GGGTTTTGTGGTTAGCAAGTTCCAGCTCCCGTCGCA
DNA 2: TGCGACGGGAGCTGGAACTTGCTAACCACAAAACCC
B13 was tested, and the binding signal was 18900 PBM fluorescence, median of replicate spots.

B14: Table S3 B row 741 (dsDNA)
DNA 1: CTTAAAACCACAACACAATAACACCAGAGGACATGA
DNA 2: TCATGTCCTCTGGTGTTATTGTGTTGTGGTTTTAAG
For B14, the binding signal was 14300 PBM fluorescence, median of replicate spots.

B15: Table S3 B row 3390 (dsDNA)
DNA 1: TTTCATATTTGTGGTTTTGGTGTTGCCTCTTACACA
DNA 2: TGTGTAAGAGGCAACACCAAAACCACAAATATGAAA
For B15, the binding signal was 18800 PBM fluorescence, median of replicate spots.

B16: Table S3 B row 2332 (dsDNA)
DNA 1: TGTCAAAGTTTGTGGTGAGTGGCTTGCTGGAGACCC
DNA 2: GGGTCTCCAGCAAGCCACTCACCACAAACTTTGACA
For B16, the binding signal was 13400 PBM fluorescence, median of replicate spots.

B17: Table S3 B row 1866 (dsDNA)
DNA 1: TCTGCGGTCAGCTGACTGTGCCAGAGTGCCGCGGGG
DNA 2: CCCCGCGGCACTCTGGCACAGTCAGCTGACCGCAGA
With B17 the binding signal was 16100 PBM fluorescence, median of replicate spots.

B18: Table S3 B row 3806 (dsDNA)
DNA 1: TCAGTCTTGTGGTTAAGGGAGGCAGGGTACTGTTGG
DNA 2: CCAACAGTACCCTGCCTCCCTTAACCACAAGACTGA
B18 was tested, and the binding signal was 20500 PBM fluorescence, median of replicate spots.

B19: Table S3 B row 3040 (dsDNA)
DNA 1: GCCTTTTGTGGTTTGTACCACTGCCTGCCTTTTCTG
DNA 2: CAGAAAAGGCAGGCAGTGGTACAAACCACAAAAGGC
For B19, the binding signal was 17300 PBM fluorescence, median of replicate spots.

B20: Table S3 B row 278 (dsDNA)
DNA 1: TAAGTGTTGTGGTTTTTTAGTTTACTGTTCAGTTGC
DNA 2: GCAACTGAACAGTAAACTAAAAAACCACAACACTTA
For B20, the binding signal was 20300 PBM fluorescence, median of replicate spots.

B21: Table S3 B row 3051 (dsDNA)
DNA 1: GGCTTGTGGTTTGGTGATTGTACGTCCTTATTGATA
DNA 2: TATCAATAAGGACGTACAATCACCAAACCACAAGCC
With B21 the binding signal was 13000 PBM fluorescence, median of replicate spots.

B22: Table S3 B row 531 (dsDNA)
DNA 1: ATAGCTTGTGGTTTATGGGTCAGCAAGTTGAGGGTG
DNA 2: CACCCTCAACTTGCTGACCCATAAACCACAAGCTAT
B22 was tested, and the binding signal was 13900 PBM fluorescence, median of replicate spots.

B23: Table S3 B row 2269 (dsDNA)
DNA 1: ACTGTTATTGTGGTTTTTGGGGACTGCCTCTTTGTC
DNA 2: GACAAAGAGGCAGTCCCCAAAAACCACAATAACAGT
B23 was tested, and the binding signal was 12500 PBM fluorescence, median of replicate spots.

B24: Table S3 B row 2387 (dsDNA)
DNA 1: CATTTCTGTTGCGGTTGGCAGCGTCTCCATCCACGG
DNA 2: CCGTGGATGGAGACGCTGCCAACCGCAACAGAAATG
With B24 the binding signal was 12200 PBM fluorescence, median of replicate spots.

B25: Table S3 B row 2604 (dsDNA)
DNA 1: CGGGTTAAACCGCAGCCGCGCCCACACTTTCGGGGT
DNA 2: ACCCCGAAAGTGTGGGCGCGGCTGCGGTTTAACCCG
B25 was tested, and the binding signal was 28100 PBM fluorescence, median of replicate spots.

B26: Table S3 B row 1695 (dsDNA)
DNA 1: GCACAAAACCGCACAAACAGCCTGAAGCACAGCCCC
DNA 2: GGGGCTGTGCTTCAGGCTGTTTGTGCGGTTTTGTGC
With B26 the binding signal was 16300 PBM fluorescence, median of replicate spots.

B27: Table S3 B row 1506 (dsDNA)
DNA 1: GTTCCTGGTTTGTGGTTATGATTTGCTGTTTGCCTT
DNA 2: AAGGCAAACAGCAAATCATAACCACAAACCAGGAAC
In the case of B27, the binding signal is reported as 24200 PBM fluorescence, median of replicate spots.

B28: Table S3 B row 3420 (dsDNA)
DNA 1: GGTTTGTGGTTTCCCCTTACTGTCTCCACTGCCTTC
DNA 2: GAAGGCAGTGGAGACAGTAAGGGGAAACCACAAACC
In the case of B28, the binding signal is reported as 28800 PBM fluorescence, median of replicate spots.

B29: Table S3 B row 2934 (dsDNA)
DNA 1: TTTTTGTGGTTTAGCCCTCAGAGCTCCCTGCCAGAG
DNA 2: CTCTGGCAGGGAGCTCTGAGGGCTAAACCACAAAAA
B29 was tested, and the binding signal was 23200 PBM fluorescence, median of replicate spots.

B30: Table S3 B row 320 (dsDNA)
DNA 1: AGAAACCACAAAACCCCATTTGAAATTCAGCCGTGC
DNA 2: GCACGGCTGAATTTCAAATGGGGTTTTGTGGTTTCT
For B30, the binding signal was 15200 PBM fluorescence, median of replicate spots.

B31: Table S3 B row 2138 (dsDNA)
DNA 1: TGTGAAACCGCAGGGGTTCAGGGAGGCAGTGTAAGC
DNA 2: GCTTACACTGCCTCCCTGAACCCCTGCGGTTTCACA
B31 was tested, and the binding signal was 11000 PBM fluorescence, median of replicate spots.

B32: Table S3 B row 3458 (dsDNA)
DNA 1: CTGATTGTGGTTTTGATTTGCAATTCCCTGATGATT
DNA 2: AATCATCAGGGAATTGCAAATCAAAACCACAATCAG
With B32 the binding signal was 25900 PBM fluorescence, median of replicate spots.
